According to patent US20240024426A1, “HYPOTENSIVE PHARMACEUTICAL COMPOSITION COMPRISING TRIPLE ACTIVATOR HAVING ACTIVITY FOR ALL OF GLUCAGON, GLP-1, AND GIP RECEPTORS” (HANMI PHARM. CO., LTD., priority 2020, published 2024):
Bridges are numbered along the chain shown (N, C = ends). Where no end group is shown, it is not given here. [ ]: non-standard residue; d: D form. The star is where a group is joined. Acetyl(2-(4-imidazolyl)) = O=C(Cc1c[nH]cn1)*; Aib = CC(C)(N)C(=O)O

T1: human GIP receptor (human, UniProt P48546 22-466)
T1 sequence (looked up): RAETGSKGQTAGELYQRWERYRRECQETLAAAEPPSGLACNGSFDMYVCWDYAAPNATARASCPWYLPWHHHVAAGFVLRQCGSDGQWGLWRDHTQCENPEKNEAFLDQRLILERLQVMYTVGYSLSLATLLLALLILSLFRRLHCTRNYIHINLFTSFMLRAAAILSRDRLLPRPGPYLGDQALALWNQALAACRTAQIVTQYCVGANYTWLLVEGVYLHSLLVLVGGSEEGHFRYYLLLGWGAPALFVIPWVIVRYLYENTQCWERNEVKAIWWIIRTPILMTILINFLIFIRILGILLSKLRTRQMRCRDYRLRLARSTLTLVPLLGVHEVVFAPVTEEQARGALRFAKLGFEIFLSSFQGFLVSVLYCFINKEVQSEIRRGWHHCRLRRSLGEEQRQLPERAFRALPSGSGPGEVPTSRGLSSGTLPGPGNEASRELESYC

B1: Triple agonist of SEQ ID NO: 86 (peptide)
peptide: {Acetyl(2-(4-imidazolyl))}-[Aib]QGTFTSDYSKYLDEKRQKEFVNWLLAQC
modifications: bridge 15-19
B2: Triple agonist of SEQ ID NO: 100 (peptide)
peptide: Y[Aib]QGTFTSDYSKALDEKAAKEFVQWLLDQHPSSGQPPPSC
modifications: bridge 16-20
B3: Triple agonist of SEQ ID NO: 84 (peptide)
peptide: {Acetyl(2-(4-imidazolyl))}-[Aib]EGTFTSDYSIAMDEIHQKDFVDWLLAEC
modifications: bridge 15-19
B4: Triple agonist of SEQ ID NO: 95 (peptide)
peptide: Y[Aib]QGTFTSDYSKYLDEKRAKEFVQWLLCHHPSSGQPPPS
modifications: bridge 16-20
B5: Triple agonist of SEQ ID NO: 96 (peptide)
peptide: Y[Aib]QGTFTSDYSKYLDEKRAKEFVQWLLDHCPSSGQPPPS
modifications: bridge 16-20
B6: Triple agonist of SEQ ID NO: 9 (peptide)
peptide: H[Aib]QGTFTSDVSKYLDGQAAQEFVAWLLAGC
B7: Triple agonist of SEQ ID NO: 2 (peptide)
peptide: H[Aib]QGTFTSDVSSYLDGQAQKEFIAWLVKGC
B8: Triple agonist of SEQ ID NO: 13 (peptide)
peptide: {Acetyl(2-(4-imidazolyl))}-GEGTFISDYSIQLDEIAVQDFVEWLLAQKPSSGAPPPSHG
B9: Triple agonist of SEQ ID NO: 92 (peptide)
peptide: [Acetyl(2-(4-imidazolyl))][Aib]QGTFTSDYSIAMDEIHQKDFVNWLLAQKC
modifications: bridge 16-20
B10: Triple agonist of SEQ ID NO: 88 (peptide)
peptide: {Acetyl(2-(4-imidazolyl))}-[Aib]QGTFTSDYSKYLDEKRQKEFVQWLLNTKC
modifications: bridge 15-19
B11: Triple agonist of SEQ ID NO: 102 (peptide)
peptide: Y[Aib]QGTFTSDYSKALDEKAAKDFVNWLLDQHPSSGQPPPSC
modifications: bridge 16-20
B12: Triple agonist of SEQ ID NO: 12 (peptide)
peptide: {Acetyl(2-(4-imidazolyl))}-GEGTFISDLSKYMDEQAVQLFVEWLMAGGPSSGAPPPSHG
B13: Triple agonist of SEQ ID NO: 10 (peptide)
peptide: H[Aib]QGTFTSDVSKYLDGQAAQEFVAWLLAGGGPSSGAPPPSC
B14: Triple agonist of SEQ ID NO: 94 (peptide)
peptide: {Acetyl(2-(4-imidazolyl))}-[Aib]QGTFTSDYSIAMDEIHQKDFVNWLLNTKC
modifications: bridge 15-19
B15: Triple agonist of SEQ ID NO: 87 (peptide)
peptide: {Acetyl(2-(4-imidazolyl))}-[Aib]QGTFTSDYSIAMDEIHQKDFVNWLLNTC
modifications: bridge 15-19
B16: Triple agonist of SEQ ID NO: 98 (peptide)
peptide: Y[Aib]QGTFTSDYSKALDEKAAKEFVNWLLDHHPSSGQPPPSC
modifications: bridge 16-20
B17: Triple agonist of SEQ ID NO: 90 (peptide)
peptide: {Acetyl(2-(4-imidazolyl))}-[Aib]EGTFTSDYSIAMDEIHQKDFVNWLLAQKC
modifications: bridge 15-19
B18: Triple agonist of SEQ ID NO: 93 (peptide)
peptide: {Acetyl(2-(4-imidazolyl))}-[Aib]QGTFTSDYSKYLDEKRQKEFVNWLLAQKC
modifications: bridge 15-19
B19: Triple agonist of SEQ ID NO: 11 (peptide)
peptide: {Acetyl(2-(4-imidazolyl))}-GEGTFTSDLSKYLDSRRQQLFVQWLKAGGPSSGAPPPSHG
B20: Triple agonist of SEQ ID NO: 82 (peptide)
peptide: {Acetyl(2-(4-imidazolyl))}-[Aib]QGTFTSDYSKYLDEKRQKEFVQWLLDTC
modifications: bridge 15-19
B21: Triple agonist of SEQ ID NO: 101 (peptide)
peptide: Y[Aib]QGTFTSDYSKALDEKAAKEFVNWLLDQHPSSGQPPPSC
modifications: bridge 16-20
B22: Triple agonist of SEQ ID NO: 83 (peptide)
peptide: {Acetyl(2-(4-imidazolyl))}-[Aib]EGTFTSDYSIAMDEIHQKDFVNWLLAQC
modifications: bridge 15-19
B23: Triple agonist of SEQ ID NO: 85 (peptide)
peptide: {Acetyl(2-(4-imidazolyl))}-[Aib]QGTFTSDYSIAMDEIHQKDFVNWLLAQC
modifications: bridge 15-19
B24: Triple agonist of SEQ ID NO: 14 (peptide)
peptide: {Acetyl(2-(4-imidazolyl))}-GQGTFTSDYSIQLDEIAVRDFVEWLKNGGPSSGAPPPSHG
B25: Triple agonist of SEQ ID NO: 97 (peptide)
peptide: Y[Aib]QGTFTSDYSKYLDEKRAKEFVQWLLDCHPSSGQPPPS
modifications: bridge 16-20
B26: Triple agonist of SEQ ID NO: 89 (peptide)
peptide: {Acetyl(2-(4-imidazolyl))}-[Aib]QGTFTSDYSKYLDEKRQKEFVQWLLDTKC
modifications: bridge 15-19
B27: Triple agonist of SEQ ID NO: 99 (peptide)
peptide: Y[Aib]QGTFTSDYSKALDEKAAKDFVNWLLDHHPSSGQPPPSC
modifications: bridge 16-20
B28: Triple agonist of SEQ ID NO: 91 (peptide)
peptide: {Acetyl(2-(4-imidazolyl))}-[Aib]EGTFTSDYSIAMDEIHQKDFVDWLLAEKC
modifications: bridge 15-19

Legend:
Assay in all cases: cell-based or functional assay
human GCG receptor = human GCG receptor (human, UniProt P47871 26-477)
human GLP-1 receptor = human GLP-1 receptor (human, UniProt P43220 24-463)
human GIP receptor = target: T1, human GIP receptor

human GCG receptor, sequence (P47871 26-477): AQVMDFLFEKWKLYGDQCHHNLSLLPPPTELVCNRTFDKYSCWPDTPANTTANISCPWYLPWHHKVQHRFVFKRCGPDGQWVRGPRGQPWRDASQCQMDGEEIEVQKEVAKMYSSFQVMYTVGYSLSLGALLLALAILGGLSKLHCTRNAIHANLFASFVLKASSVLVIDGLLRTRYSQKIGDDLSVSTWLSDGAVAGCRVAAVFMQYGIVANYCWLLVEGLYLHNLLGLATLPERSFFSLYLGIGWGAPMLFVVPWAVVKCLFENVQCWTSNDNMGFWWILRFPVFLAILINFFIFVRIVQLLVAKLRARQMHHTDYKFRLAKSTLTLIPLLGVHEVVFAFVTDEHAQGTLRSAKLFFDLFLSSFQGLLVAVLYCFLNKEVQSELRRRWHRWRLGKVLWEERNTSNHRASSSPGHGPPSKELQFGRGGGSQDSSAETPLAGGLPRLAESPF

| Binder | In vitro activity compared with native peptide (%) vs. Glucagon (human GCG receptor) [%] | In vitro activity compared with native peptide (%) vs. GLP-1 (human GLP-1 receptor) [%] | In vitro activity compared with native peptide (%) vs. GIP (human GIP receptor) [%] |
| --- | --- | --- | --- |
| B1 | 0.4 | 28.4 | 0.2 |
| B2 | 12.7 | 42.2 | 118 |
| B3 | < 0.1 | 4.2 | < 0.1 |
| B4 | 0.4 | 2.1 | < 0.1 |
| B5 | 195 | 34.4 | 5.2 |
| B6 | 0.13 | 32.1 | < 0.1 |
| B7 | < 0.1 | 5.9 | < 0.1 |
| B8 | < 0.1 | < 0.1 | < 0.1 |
| B9 | < 0.1 | 0.8 | 0.4 |
| B10 | 0.3 | 9.6 | < 0.1 |
| B11 | 29.5 | 23.3 | 58 |
| B12 | < 0.1 | 0.4 | < 0.1 |
| B13 | < 0.1 | 46 | < 0.1 |
| B14 | < 0.1 | 0.5 | < 0.1 |
| B15 | < 0.1 | 0.9 | < 0.1 |
| B16 | 8.2 | 28.1 | 47.1 |
| B17 | < 0.1 | 7.4 | < 0.1 |
| B18 | 0.3 | 5.7 | 0.7 |
| B19 | < 0.1 | 1.4 | < 0.1 |
| B20 | 1.1 | 9.5 | < 0.1 |
| B21 | 13.9 | 23.2 | 40.1 |
| B22 | 1.3 | 47.3 | 0.4 |
| B23 | < 0.1 | 4.3 | 0.3 |
| B24 | < 0.1 | 28 | < 0.1 |
| B25 | 62.8 | 10.5 | 2.6 |
| B26 | 0.7 | 7.1 | < 0.1 |
| B27 | 14.9 | 20.9 | 57.7 |
| B28 | 16.8 | 31.9 | 0.3 |
